Earlier results on one substance are cited in paper PMC7484323 (Molecular pharmaceutics, 2020).

The series deals with B16/F1 melanoma. To be noted: 2 h post-injection.

For the substance “hydrazinonicotinamide (HYNIC)-GGNle-CycMSHhex (sidechain bridge or staple) [99mTc(EDDA)-HYNIC-GGNle-CycMSHhex]”, the “kidney (renal) uptake” value is given as 7.52 ± 0.96 %ID/g and the liver uptake was 0.52 ± 0.05 %ID/g. The tumor uptake (B16/F1 melanoma) was 14.14 ± 4.90 %ID/g.
